Reference: PMC4678854
Substitutions are numbered along the chain they refer to.

Legend:
Test in all cases: EMSA
TnsE E522K+D523N = biological target: T1, TnsE E522K+D523N (Escherichia coli (transposon Tn7), UniProt P05845 1-538, E522K;D523N)
T1 sequence: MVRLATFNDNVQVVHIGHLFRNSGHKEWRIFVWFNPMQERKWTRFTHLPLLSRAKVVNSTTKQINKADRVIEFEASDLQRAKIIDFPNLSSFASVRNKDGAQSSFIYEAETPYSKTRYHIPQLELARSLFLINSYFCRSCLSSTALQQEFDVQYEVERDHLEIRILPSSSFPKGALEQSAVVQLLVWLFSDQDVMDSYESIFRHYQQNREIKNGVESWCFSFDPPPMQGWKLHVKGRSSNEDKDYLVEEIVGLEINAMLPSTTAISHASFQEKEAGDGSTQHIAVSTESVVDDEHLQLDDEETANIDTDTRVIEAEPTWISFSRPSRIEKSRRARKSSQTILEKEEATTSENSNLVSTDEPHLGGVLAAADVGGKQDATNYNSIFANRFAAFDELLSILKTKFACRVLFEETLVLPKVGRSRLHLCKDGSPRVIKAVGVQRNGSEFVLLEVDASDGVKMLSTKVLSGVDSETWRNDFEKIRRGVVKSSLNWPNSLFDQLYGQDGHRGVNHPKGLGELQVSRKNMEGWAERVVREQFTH

TnsE G483R = biological target: T2, TnsE G483R (Escherichia coli (transposon Tn7), UniProt P05845 1-538, G483R)
T2 sequence: T1 sequence with G483R, K522E, N523D

TnsE D523N = biological target: T3, TnsE D523N (Escherichia coli (transposon Tn7), UniProt P05845 1-538, D523N)
T3 sequence: T1 sequence with K522E

TnsE E516K = biological target: T4, TnsE E516K (Escherichia coli (transposon Tn7), UniProt P05845 1-538, E516K)
T4 sequence: T1 sequence with E516K, K522E, N523D

TnsE A453V = biological target: T5, TnsE A453V (Escherichia coli (transposon Tn7), UniProt P05845 1-538, A453V)
T5 sequence: T1 sequence with A453V, K522E, N523D

TnsE E522K = biological target: T6, TnsE E522K (Escherichia coli (transposon Tn7), UniProt P05845 1-538, E522K)
T6 sequence: T1 sequence with N523D

TnsE G515R = biological target: T7, TnsE G515R (Escherichia coli (transposon Tn7), UniProt P05845 1-538, G515R)
T7 sequence: T1 sequence with G515R, K522E, N523D

TnsE wild-type = biological target: T8, TnsE wild-type (Escherichia coli (transposon Tn7), UniProt P05845 1-538)
T8 sequence: T1 sequence with K522E, N523D

Measured: binding result

B1: 3' recessed-end DNA substrate (mixed)
DNA 1: CCATTAGCAAGGCCGGAAACGTCACCAATGCAACGATCAGCCAACTAAACTAGGACATCTTTGCC
DNA 2: GGCAAAGATGTCCTAGTTTAGTTGGCTGAT
binds: TnsE E522K+D523N | TnsE G483R | TnsE D523N | TnsE E516K | TnsE A453V | TnsE E522K | TnsE G515R | TnsE wild-type
